This test concerns the target T1, Aβ42-GFP (Homo sapiens, UniProt P05067).
T1 construct: a chimeric fusion of the human Aβ(1-42) peptide (Aβ42) with GFP; expressed in transfected cells; host or cells: E. coli BL21(DE3)
Nature of the test: High-throughput sequencing of pSICLOPPS vectors isolated after bacterial sorting for enhanced Aβ42-GFP fluorescence. Conditions: for Reads/Total TXXXR reads (%): relative to total TXXXR reads; for Reads/Total pentapeptide reads (%): relative to total pentapeptide reads. The method in brief:
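E. coli BL21(DE3) expressing Aβ42-GFP from the T7 promoter was co-transformed with cyclic peptide libraries (0.002% L-arabinose, 0.1 mM IPTG at OD600 ~0.5, 37° C). High-fluorescence cells were sorted over repeated rounds. Plasmid peptide-encoding regions were then sequenced by Ion Torrent, discarding sequences with stop codons.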

Where [1] appears, read: after the second round of bacterial sorting for enhanced Aβ42-GFP fluorescence.
The mark [2] stands for this setting: after the second round of bacterial sorting for enhanced Aβ42-GFP fluorescence, relative to total peptide reads.
[3] abbreviates: pSICLOPPS-NuX1X2X3-X5 vectors after the second round of bacterial sorting for enhanced Aβ42-GFP fluorescence.
Setting [4] is: Table 4, hexapeptides, after second round of sorting.

Consider AβC5-441 (TAWDR; cyclic pentapeptide), for which, under setting [1], the “Reads/Total TXXXR reads (%)” value came to 0.003% and the “Reads/Total pentapeptide reads (%)” value is 0.002%. The “Reads/Total peptide reads (%)” value under setting [2] stood at 0.001%. For the same substance, the Number of reads under setting [3] stood at 61.
On to AβC5-443 (TTHHR; cyclic pentapeptide), for which, under setting [1], the “Reads/Total TXXXR reads (%)” value turned out to be 0.003% and the “Reads/Total pentapeptide reads (%)” value turned out to be 0.001%. Also, the “Reads/Total peptide reads (%)” value under setting [2] is given as 0.001%. The Number of reads under setting [3] came out at 60.
As to AβC5-448 (TAYAR; cyclic pentapeptide), under setting [1], the “Reads/Total TXXXR reads (%)” value worked out at 0.003% and the “Reads/Total pentapeptide reads (%)” value was determined as 0.001%. Besides, the “Reads/Total peptide reads (%)” value under setting [2] was determined as 0.001%. Further, the Number of reads under setting [3] was determined as 58.
For the substance AβC5-449 (TANAR; cyclic pentapeptide), under setting [1], the “Reads/Total TXXXR reads (%)” value stood at 0.003% and the “Reads/Total pentapeptide reads (%)” value is reported as 0.001%. The “Reads/Total peptide reads (%)” value under setting [2] was 0.001%. Under setting [3], the Number of reads was found to be 58.
Regarding AβC5-450 (TRDVR; cyclic pentapeptide), under setting [1], the “Reads/Total TXXXR reads (%)” value was 0.003% and the “Reads/Total pentapeptide reads (%)” value worked out at 0.001%. Also, the “Reads/Total peptide reads (%)” value under setting [2] turned out to be 0.001%. Further, the Number of reads under setting [3] amounted to 58.
In the case of AβC5-452 (THVDR; cyclic pentapeptide), under setting [1], the “Reads/Total TXXXR reads (%)” value is recorded as 0.003% and the “Reads/Total pentapeptide reads (%)” value turned out to be 0.001%. In addition, the “Reads/Total peptide reads (%)” value under setting [2] is 0.001%. Further, the Number of reads under setting [3] was found to be 58.
Regarding AβC5-453 (TLFWR; cyclic pentapeptide), under setting [1], the “Reads/Total TXXXR reads (%)” value stood at 0.003% and the “Reads/Total pentapeptide reads (%)” value is reported as 0.001%. The “Reads/Total peptide reads (%)” value under setting [2] came out at 0.001%. Also, the Number of reads under setting [3] came out at 57.
AβC5-459 (TTAAR; cyclic pentapeptide): under setting [1], the “Reads/Total TXXXR reads (%)” value is given as 0.003% and the “Reads/Total pentapeptide reads (%)” value came to 0.001%. Further, under setting [2], the “Reads/Total peptide reads (%)” value came out at 0.001%. Besides, the Number of reads under setting [3] came out at 55.
With AβC5-463 (TVVDR; cyclic pentapeptide), under setting [1], the “Reads/Total TXXXR reads (%)” value worked out at 0.003% and the “Reads/Total pentapeptide reads (%)” value worked out at 0.001%. Besides, the “Reads/Total peptide reads (%)” value under setting [2] is on record as 0.001%. The Number of reads under setting [3] turned out to be 54.
Consider AβC5-464 (TTPAR; cyclic pentapeptide), for which, under setting [1], the “Reads/Total TXXXR reads (%)” value is given as 0.003% and the “Reads/Total pentapeptide reads (%)” value is given as 0.001%. For the same substance, the “Reads/Total peptide reads (%)” value under setting [2] is 0.001%. Moreover, the Number of reads under setting [3] was determined as 54.
Regarding AβC5-469 (TTIGR; cyclic pentapeptide), under setting [1], the “Reads/Total TXXXR reads (%)” value was found to be 0.003% and the “Reads/Total pentapeptide reads (%)” value stood at 0.001%. Further, the “Reads/Total peptide reads (%)” value under setting [2] is 0.001%. For the same substance, under setting [3], the Number of reads came out at 53.
In the case of AβC5-472 (TMYAR; cyclic pentapeptide), under setting [1], the “Reads/Total TXXXR reads (%)” value amounted to 0.003% and the “Reads/Total pentapeptide reads (%)” value stood at 0.001%. For the same substance, under setting [2], the “Reads/Total peptide reads (%)” value is recorded as 0.001%. The Number of reads under setting [3] came to 51.
As to AβC5-473 (THVAR; cyclic pentapeptide), under setting [1], the “Reads/Total TXXXR reads (%)” value is recorded as 0.003% and the “Reads/Total pentapeptide reads (%)” value was 0.001%. Also, under setting [2], the “Reads/Total peptide reads (%)” value is listed as 0.001%. Moreover, under setting [3], the Number of reads is recorded as 51.
In the case of AβC5-474 (TTWPR; cyclic pentapeptide), under setting [1], the “Reads/Total TXXXR reads (%)” value worked out at 0.003% and the “Reads/Total pentapeptide reads (%)” value was 0.001%. Also, the “Reads/Total peptide reads (%)” value under setting [2] turned out to be 0.001%. Besides, under setting [3], the Number of reads was found to be 51.
Turning to AβC5-475 (TTGDR; cyclic pentapeptide), under setting [1], the “Reads/Total TXXXR reads (%)” value was found to be 0.003% and the “Reads/Total pentapeptide reads (%)” value is reported as 0.001%. Under setting [2], the “Reads/Total peptide reads (%)” value amounted to 0.001%. The Number of reads under setting [3] is 51.
Take AβC5-479 (TTTVR; cyclic pentapeptide): under setting [1], the “Reads/Total TXXXR reads (%)” value worked out at 0.003% and the “Reads/Total pentapeptide reads (%)” value was found to be 0.001%. Also, the “Reads/Total peptide reads (%)” value under setting [2] was found to be 0.001%. Further, under setting [3], the Number of reads was found to be 50.
Regarding AβC5-481 (TVFGR; cyclic pentapeptide), under setting [1], the “Reads/Total TXXXR reads (%)” value is 0.003% and the “Reads/Total pentapeptide reads (%)” value is 0.001%. Under setting [2], the “Reads/Total peptide reads (%)” value was 0.001%. Under setting [3], the Number of reads is given as 50.
For AβC5-483 (TRVGR; cyclic pentapeptide), under setting [1], the “Reads/Total TXXXR reads (%)” value is on record as 0.003% and the “Reads/Total pentapeptide reads (%)” value is recorded as 0.001%. Also, the “Reads/Total peptide reads (%)” value under setting [2] is 0.001%. Besides, the Number of reads under setting [3] is 50.
With TCSWFD [AβC6-27], for the setting “Table 4”, the “Reads/Total hexapeptide reads (%)” value stood at 0.138% and the “Reads/Total peptide reads (%)” value is on record as 0.014%. Moreover, the Number of reads under setting [4] was 623.
For the substance TIFWFD [AβC6-50], where the note is “Table 4”, the “Reads/Total hexapeptide reads (%)” value came to 0.050% and the “Reads/Total peptide reads (%)” value amounted to 0.005%. Besides, the Number of reads under setting [4] was found to be 227.
As for TKEYFD [AβC6-21], for the setting “Table 4”, the “Reads/Total hexapeptide reads (%)” value is on record as 0.272% and the “Reads/Total peptide reads (%)” value was found to be 0.027%. Further, the Number of reads under setting [4] is listed as 1,231.
In the case of TLCWLN [AβC6-32], for the setting “Table 4”, the “Reads/Total hexapeptide reads (%)” value is listed as 0.101% and the “Reads/Total peptide reads (%)” value was found to be 0.010%. The Number of reads under setting [4] is listed as 455.
The matching figures for TLDFFD [AβC6-63]: 0.025%, 0.003% and 114.
Regarding TLEFFD [AβC6-4], under “Table 4”, the “Reads/Total hexapeptide reads (%)” value came to 5.978% and the “Reads/Total peptide reads (%)” value is reported as 0.597%. Besides, the Number of reads under setting [4] is 27,057.
With TLEYFM [AβC6-28], where the note is “Table 4”, the “Reads/Total hexapeptide reads (%)” value was determined as 0.123% and the “Reads/Total peptide reads (%)” value was determined as 0.012%. The Number of reads under setting [4] is on record as 556.
Regarding TLEYLW [AβC6-49], under “Table 4”, the “Reads/Total hexapeptide reads (%)” value is given as 0.051% and the “Reads/Total peptide reads (%)” value is reported as 0.005%. Under setting [4], the Number of reads was determined as 233.
Consider TLGWLD [AβC6-42], for which, for the setting “Table 4”, the “Reads/Total hexapeptide reads (%)” value was determined as 0.068% and the “Reads/Total peptide reads (%)” value is reported as 0.007%. The Number of reads under setting [4] turned out to be 307.
For TLHWFE [AβC6-26], where the note is “Table 4”, the “Reads/Total hexapeptide reads (%)” value is given as 0.143% and the “Reads/Total peptide reads (%)” value was determined as 0.014%. In addition, under setting [4], the Number of reads came out at 647.
Consider TLKWLN [AβC6-10], for which, for the setting “Table 4”, the “Reads/Total hexapeptide reads (%)” value was determined as 2.434% and the “Reads/Total peptide reads (%)” value is 0.243%. In addition, under setting [4], the Number of reads is on record as 11,016.
TLLIRW [AβC6-8]: under “Table 4”, the “Reads/Total hexapeptide reads (%)” value is on record as 2.902% and the “Reads/Total peptide reads (%)” value amounted to 0.290%. Besides, under setting [4], the Number of reads is recorded as 13,135.
For TLSVFD [AβC6-57], for the setting “Table 4”, the “Reads/Total hexapeptide reads (%)” value is listed as 0.039% and the “Reads/Total peptide reads (%)” value turned out to be 0.004%. Further, under setting [4], the Number of reads is on record as 176.
The matching figures for TLSWFN [AβC6-59]: 0.031%, 0.003% and 141.
Regarding TLSWYD [AβC6-47], under “Table 4”, the “Reads/Total hexapeptide reads (%)” value came out at 0.053% and the “Reads/Total peptide reads (%)” value is on record as 0.005%. Moreover, under setting [4], the Number of reads is 239.
On the same counts, the results for TLWVFD [AβC6-37] are 0.078%, 0.008% and 355.
As for TPALFD [AβC6-68], where the note is “Table 4”, the “Reads/Total hexapeptide reads (%)” value turned out to be 0.022% and the “Reads/Total peptide reads (%)” value is 0.002%. Also, the Number of reads under setting [4] was 101.
The matching figures for TPALVD [AβC6-53]: 0.046%, 0.005% and 208.
As to TPARFD [AβC6-78], for the setting “Table 4”, the “Reads/Total hexapeptide reads (%)” value was found to be 0.012% and the “Reads/Total peptide reads (%)” value was 0.001%. Also, the Number of reads under setting [4] came to 55.
Consider TPAWFD [AβC6-2], for which, under “Table 4”, the “Reads/Total hexapeptide reads (%)” value came to 24.555% and the “Reads/Total peptide reads (%)” value is 2.453%. Also, the Number of reads under setting [4] is 111,132.
For the substance TPAWLD [AβC6-79], for the setting “Table 4”, the “Reads/Total hexapeptide reads (%)” value was 0.012% and the “Reads/Total peptide reads (%)” value is on record as 0.001%. Moreover, the Number of reads under setting [4] was 55.
For TPAWSD [AβC6-69], under “Table 4”, the “Reads/Total hexapeptide reads (%)” value is reported as 0.019% and the “Reads/Total peptide reads (%)” value is on record as 0.002%. In addition, the Number of reads under setting [4] amounted to 86.
As for TPCWFD [AβC6-46], where the note is “Table 4”, the “Reads/Total hexapeptide reads (%)” value is reported as 0.056% and the “Reads/Total peptide reads (%)” value was 0.006%. Besides, the Number of reads under setting [4] was found to be 252.
With TPGLVD [AβC6-58], where the note is “Table 4”, the “Reads/Total hexapeptide reads (%)” value was 0.031% and the “Reads/Total peptide reads (%)” value was 0.003%. Moreover, the Number of reads under setting [4] turned out to be 142.
On the same counts, the results for TPGWFD [AβC6-55] are 0.040%, 0.004% and 180.
For TPIVFD [AβC6-36], under “Table 4”, the “Reads/Total hexapeptide reads (%)” value stood at 0.085% and the “Reads/Total peptide reads (%)” value is on record as 0.008%. The Number of reads under setting [4] is 384.
TPLWFN [AβC6-40]: for the setting “Table 4”, the “Reads/Total hexapeptide reads (%)” value was determined as 0.070% and the “Reads/Total peptide reads (%)” value was 0.007%. In addition, the Number of reads under setting [4] is listed as 316.
In the case of TPPWFD [AβC6-44], where the note is “Table 4”, the “Reads/Total hexapeptide reads (%)” value came out at 0.064% and the “Reads/Total peptide reads (%)” value amounted to 0.006%. Moreover, the Number of reads under setting [4] is 289.

Values taken from patent US12559863B2, “Macrocyclic modulators of disease associated protein misfolding and aggregation” (RESQ BIOTECH, priority 2017, dated 2026).
